Measured values as given in US20180362665A1 (KATHOLIEKE UNIVERSITEIT LEUVEN, published 2018).

Target: ovine ADAMTS13 (in sheep plasma) (sheep)
Assay: cell-based or functional assay

B1: anti-ADAMTS13 monoclonal antibody 17C7 (antibody, V domains shown)
VH: EVQLVESGGDLVKSGGSLKLSCAASGFIFSNYAMSWVRQTPEKRLEWGATITTGGFYTFYSDSVKGRFTISRDNAKNTLYLQMSSLRSEDTAMYYCARHRYDDYYALDYWGQGTSVTVSS
VL: ENVLTQSPAIMSTSPGEKVTMTCNVSSSVSYMRWFQQKSSTSPKLWIYDTSKLASGVPGRFSGSGSGHSYSLTISSMEADDVATYYCFQGNGYPLTFGAGTKLELK
  half maximal inhibitory concentration (IC50) of ADAMTS13 activity in ovine plasma, FRETS-VWF71 assay: 2.4 µg/mL
